Where two headings read alike, the source gives them in different places.
Key:
[1] = molecular target: MBP-tagged NCS-1 (neuronal calcium sensor-1) (UniProt P62166); experiment: pull-down
[2] = molecular target: MBP-tagged NCS-1 (neuronal calcium sensor-1) (UniProt P62166); experiment: pull-down; remark: listed apart in the source

MBP-tagged NCS-1 (neuronal calcium sensor-1), sequence (P62166 whole entry): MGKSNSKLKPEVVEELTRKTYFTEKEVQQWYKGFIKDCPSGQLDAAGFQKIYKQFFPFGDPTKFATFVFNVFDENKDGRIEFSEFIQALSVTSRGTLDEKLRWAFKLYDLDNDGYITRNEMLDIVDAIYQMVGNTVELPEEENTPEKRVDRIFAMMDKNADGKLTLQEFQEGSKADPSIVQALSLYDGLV

relative binding (ratio of IMAA-GST to NCS-1-MBP) [1]: 0.29
relative binding (ratio of IMAA-GST to NCS-1-MBP) [2]: 0.24
Substance: GST-tagged IM-AA mutant IQ domain of CaV2.1 (from UniProt P54282 1848-1964) (domain or fragment)

Source: PMC4293345
